Experimental findings from publication PMC5377238 are described below.

Usually Km stands for the substrate concentration at which the rate is half of its maximum.

Substrate in the data set: C[S+](CC[C@H](N)C(=O)[O-])C[C@H]1O[C@@H](n2cnc3c(N)ncnc32)[C@H](O)[C@@H]1O
Nature of the data set: purified protein. To be noted: pyruvoyl group (converted Ser68).

B1: human S-adenosylmethionine decarboxylase (hAdoMetDC) (Homo sapiens) (protein)
chain 1: MEAAHFFEGTEKLLEVWFSRQQPDANQGSGDLRTIPRSEWDILLKDVQCSIISVTKTDKQEAYVLSE
chain 2: SSMFVSKRRFILKTCGTTLLLKALVPLLKLARDYSGFDSIQSFFYSRKNFMKPSHQGYPHRNFQEEIEFLNAIFPNGAAYCMGRMNSDCWYLYTLDFPESRVISQPDQTLEILMSELDPAVMDQFYMKDGVTAKDVTRESGIRDLIPGSVIDATMFNPCGYSMNGMKSDGTYWTIHITPEPEFSYVSFETNLSQTSYDDLIRKVVEVFKPGKFVTTLFVNQSSKCRTVLASPQKIEGFKRLDCQSAMFNDYNFVFTSFAKKQQQQQS
B1: the Km was determined as 3.1 ± 1.8 µM.
